Test results from patent US20050288223A1.

Target: mouse LSR (lipolysis stimulated receptor) (mouse) (UniProt Q99KG5)
Assay: cell-based or functional assay

Chain of UniProt Q99KG5 (Q99KG5 36-594): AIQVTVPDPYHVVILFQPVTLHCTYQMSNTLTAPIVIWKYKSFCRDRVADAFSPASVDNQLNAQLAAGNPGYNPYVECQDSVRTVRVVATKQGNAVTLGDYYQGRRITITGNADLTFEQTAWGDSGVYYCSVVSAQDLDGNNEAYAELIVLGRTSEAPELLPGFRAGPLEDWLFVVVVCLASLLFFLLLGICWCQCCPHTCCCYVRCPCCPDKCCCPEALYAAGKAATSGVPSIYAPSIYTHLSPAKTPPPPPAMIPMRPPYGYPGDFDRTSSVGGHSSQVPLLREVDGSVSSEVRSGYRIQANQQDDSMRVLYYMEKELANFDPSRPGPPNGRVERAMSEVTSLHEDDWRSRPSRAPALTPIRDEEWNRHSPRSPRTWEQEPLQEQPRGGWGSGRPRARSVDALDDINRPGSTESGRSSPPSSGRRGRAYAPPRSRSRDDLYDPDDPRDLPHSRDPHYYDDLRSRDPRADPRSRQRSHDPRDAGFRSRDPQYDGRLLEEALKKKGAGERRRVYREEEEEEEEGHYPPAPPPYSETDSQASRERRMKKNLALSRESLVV

cell-associated 125I-leptin in BPRCL mouse liver cells after pre-incubation with increasing AdipoQ (AQ) or globular AdipoQ (AQ-GH): > 30%
Substance: 125I-mouse leptin (from UniProt P41160 22-167) (ligand)
